Molecular target: YFP-PAX5-Foldon (not stated | phage T4) (UniProt P10104)
Assay: SEC

stoichiometry N: 3
Substance: YFP-PAX5-Foldon (from UniProt P10104 458-484)

Source: publication PMC3197879
